Test results reported in the supplement of paper PMC12764529.
± gives the half width of the 95% confidence interval.

Key:
[1] = folding stability dG unfold from trypsin proteolysis; higher = more stable
In short: (§1)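 Digests were run with trypsin and chymotrypsin at 11 concentrations in threefold dilutions, plus a no-protease condition, on designed mini-proteins in a PA-tagged cDNA display construct. The mini-proteins were under 80 residues, had no cysteine, and were kept only when AlphaFold2 dimer inter-PAE was above 15. After sequencing, Bayesian fitting of the counts gave K50, from which unfolding free energy was derived against a sequence-predicted unfolded-state K50 and a shared folded-state K50, per protease or combined.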

[2] = folding stability dG unfold from chymotrypsin proteolysis; higher = more stable
In short: as §1

[3] = folding stability dG unfold (combined trypsin and chymotrypsin); higher = more stable
In short: as §1

Row | Sequence | folding stability dG unfold [1] | folding stability dG unfold [2] | folding stability dG unfold [3]
1 | SAGGSAGGEDPNFTPPVKVYYLDLEIEVKPNEIEKLKEEFPDLEAEYEKLGDTYKVKLRIPVPVSAGGSAGG [r6_685_TrMRF] | 1.51 ± 0.077 kcal/mol | 2.03 ± 0.12 kcal/mol | 1.85 ± 0.17 kcal/mol
2 | SAGGSAGGSKVDIVKVEVYEVESPLGGRYYLVKVYRKDGRPILVLASPSTTPEEVLKKAEEAESAGGSAGGS [r12_1047_TrMRF] | 1.96 ± 0.049 kcal/mol | 2.78 ± 0.053 kcal/mol | 2.48 ± 0.12 kcal/mol
3 | SAGGSAGGSAMVLNVPLEELLKLLGVPKEEVSYKKLEDESYELTLPDGTKVKVIVPKEILESAGGSAGGSAG [r3_477_JUSTAS] | 2.81 ± 0.098 kcal/mol | 2.86 ± 0.036 kcal/mol | 2.91 ± 0.13 kcal/mol
4 | SAGGSAGGSAGGEIKPGETITNLKVKIRNKKTGKTITVTLKPGETAEDLAKKLGVEIEPSAGGSAGGSAGGS [r10_202_TrROS_Hall] | 0.622 ± 0.12 kcal/mol | 0.881 ± 0.097 kcal/mol | 0.87 ± 0.1 kcal/mol
5 | SAGGSAGGSAGDAPPGATLTLNIELELTLKVVDPSTGELVEERKLRIPLTLTYVLDDDDLSAGGSAGGSAGG [r11_970_TrMRF] | 3.15 ± 0.42 kcal/mol | 4.24 ± 0.13 kcal/mol | 3.8 ± 0.43 kcal/mol
6 | SAGDIGRVEARPVPLPGDRPGRVVVVESSVPNLRVLLFRGPEDRWVALVETDGRVEELPLEEALRLLASSAG [r5_157_TrMRF] | 1.69 ± 0.043 kcal/mol | 2.717 ± 0.021 kcal/mol | 2.39 ± 0.076 kcal/mol
7 | SAGGSAGGSAKIKVLIKITNKDGKKKEILLEAETEEEALEAAKKLAEKEINGKKYKIEIKPLSAGGSAGGSA [r18_457_TrROS_Hall] | 1.83 ± 0.074 kcal/mol | 2.08 ± 0.044 kcal/mol | 1.96 ± 0.11 kcal/mol
8 | SAGGMIKIEKEEDGTLRITIVVPEKEEEAEELAEKLKEKLKELGVEEVKIEVVEKDGKVVVEIEVKKSAGGS [r8_113_TrROS_Hall] | 2.29 ± 0.1 kcal/mol | 2.77 ± 0.16 kcal/mol | 2.53 ± 0.13 kcal/mol
9 | SAGGSAKIKITIEYDEETGEVRIKIEVDGKEYEITLSREELANMTIEELAKKLGVEIEEVEIYPVPSAGGSA [r15_801_TrROS_Hall] | 3.35 ± 0.24 kcal/mol | 2.92 ± 0.28 kcal/mol | 3.35 ± 0.3 kcal/mol
10 | SWKIEIPVLVKVDPGETMDEMKDQVVEIADMIAKYMQKQGGPIEVDVDVTPDPEEGYIFVTVEIEVPPGASA [r9_1161_TrROS] | 1.03 ± 0.13 kcal/mol | 2.9 ± 0.13 kcal/mol | 2.39 ± 0.29 kcal/mol
11 | SDRFTATVEYPDTGKTETIELDPSHLSITVEFTGSATFRVTISYDVNGDTFTVEAEFTAPLAPVPPEAFLSA [r9_1067_TrMRF] | 2.25 ± 0.15 kcal/mol | 2.67 ± 0.028 kcal/mol | 2.51 ± 0.11 kcal/mol
12 | SAGGSMELKPGDSIEFPENIPLDEIIELAKKIAEEFNFEGIEDIENPSEGFYRIRAITPDGRPIEISAGGSA [r2_168_TrMRF] | -0.147 ± 0.23 kcal/mol | 0.141 ± 0.18 kcal/mol | 0.0617 ± 0.18 kcal/mol
13 | SAGTTSVVSTETTEFPDGTVTTTTTVLYLEPEGDGYVKVSETRVTTTYTIDPATGTVVTSTTTTTPLAGSAG [r5_828_JUSTAS] | 1.79 ± 0.063 kcal/mol | 2.17 ± 0.063 kcal/mol | 1.99 ± 0.098 kcal/mol
14 | SAGKKIHITLTEDELREIAEALGLEPEDMTAEELAARLREEFPDVEVTIEKPPVEEREREERELAEEEKSAG [r5_264_TrROS_Hall] | 1.76 ± 0.064 kcal/mol | 0.984 ± 0.068 kcal/mol | 1.3 ± 0.14 kcal/mol
15 | SPLTLTFENPENGIRVELVFDPETPEVHAKVYAPNGELLSEETFEVEEKKITLRFNLEGKEFELEIELDESA [r9_385_TrMRF] | 3.86 ± 0.12 kcal/mol | 4.25 ± 0.082 kcal/mol | 4.16 ± 0.11 kcal/mol
16 | SAGGKIKLSPEALKALEEAIKKGDKNKTIFIELPDGSRIEVLPDGRIKVINKNGEEYELSEIKKIYPSAGGS [r16_664_TrROS_Hall] | 2.99 ± 0.2 kcal/mol | 2.31 ± 0.12 kcal/mol | 2.58 ± 0.22 kcal/mol
17 | SAGGSPEQARRWAKYIAETRAGENGWEVEDVEVEQHPGGYVEASIDVQFPDGKKREITITIPPGDPFSAGGS [r8_175_TrROS] | -0.149 ± 0.54 kcal/mol | -0.361 ± 0.81 kcal/mol | -0.447 ± 0.55 kcal/mol
18 | SAGGSAGGSAGGPEWRWREFTIPGDPEEIKKLFPNFKILSPEPPPNGMRKVTIWIPPEDSAGGSAGGSAGGS [r10_764_TrROS] | -0.0853 ± 0.6 kcal/mol | 1.54 ± 0.079 kcal/mol | 1.27 ± 0.12 kcal/mol
19 | SAGGSAGGSAKKKVIVIELPEDMTLEEALALAKALAPPGAEIVIRRDGKLYVIKIEDPEKLSAGGSAGGSAG [r3_50_TrROS_Hall] | 2.24 ± 0.11 kcal/mol | 2.82 ± 0.084 kcal/mol | 2.55 ± 0.17 kcal/mol
20 | SMVTVETRPEEVLPDAEGRLRRVTVVITFPDGKTLTVDMEFPPDVSDEEVEERLRALVEELGVESIELLGSA [r9_1203_JUSTAS] | 3.7 ± 0.11 kcal/mol | 1.81 ± 0.086 kcal/mol | 2.99 ± 0.17 kcal/mol
21 | SAGGKKVVITLTAEELEELLKEGKPLTAEEIARRLLPPGAKVTVEVTYDPETKEVTVTVVIEVPEELESAGG [r13_862_TrROS_Hall] | 2.27 ± 0.13 kcal/mol | 2.16 ± 0.21 kcal/mol | 2.22 ± 0.12 kcal/mol

Row | Sequence | folding stability dG unfold [1] | folding stability dG unfold [2] | folding stability dG unfold [3]
22 | SAGGSAGGSAKPDKPIKVKVTLYNPATGEKTVVEVEVPPHVKPEEVAEALRKEFGAARVEVESAGGSAGGSA [r18_58_TrMRF] | 3.05 ± 0.086 kcal/mol | 3.112 ± 0.03 kcal/mol | 3.08 ± 0.057 kcal/mol
23 | SAGGGEYKVEVVTFPDGSKVVLVTLPNGDKVALPVPVTRTVPVLDKTGPLKKPGPVEVAALVLVSSNGSAGG [r13_236_TrMRF] | 0.636 ± 0.035 kcal/mol | 1.17 ± 0.12 kcal/mol | 0.956 ± 0.076 kcal/mol
24 | SAGGSAGGSMALPPDLEVRITERTVSPDGSTTTYTVERPDGTTVTLTSEAELAALRESGVVLESAGGSAGGS [r12_455_JUSTAS] | 0.227 ± 0.086 kcal/mol | -0.137 ± 0.15 kcal/mol | 0.145 ± 0.089 kcal/mol
25 | SAGGSAGGSAGGPKIVRIAGNPETGILIIEFENGEKKVIELKQEEADKLAKENPGVEVLTSAGGSAGGSAGG [r7_175_TrMRF] | 1.03 ± 0.059 kcal/mol | 0.433 ± 0.056 kcal/mol | 0.777 ± 0.11 kcal/mol
26 | SVPIALPGVPPGFSLEEVAALITEKIKALGYTLKDIKVTPHPDNTVTITITVEKGEKTVKKVTTEINPPVSA [r9_953_JUSTAS] | 1.56 ± 0.15 kcal/mol | 2.95 ± 0.097 kcal/mol | 2.56 ± 0.36 kcal/mol
27 | SAGGSAGGSAGGSSMTLVTEETELPSPLRKVTKYTIDPKNPGKITSETTWYDPEGKPLGSAGGSAGGSAGGS [r4_297_JUSTAS] | -0.441 ± 0.33 kcal/mol | 0.362 ± 0.17 kcal/mol | 0.0774 ± 0.17 kcal/mol
28 | SASITHTVPGVQVRAYLNPDGYMFIQVYNPNDGEPKQPIWMPPDHITDVEVTGDWVKITIKMDPEDFKLSAG [r14_755_TrROS] | 1.25 ± 0.052 kcal/mol | 2.32 ± 0.08 kcal/mol | 2.06 ± 0.16 kcal/mol
29 | SAGGSSPPTVEVSFDPASGTLTITTPDGTTTYSVKSVTVTRLPPELTLITITLEDGTVLTFELVVASAGGSA [r2_268_JUSTAS] | 3.36 ± 0.15 kcal/mol | 4.65 ± 0.063 kcal/mol | 4.52 ± 0.13 kcal/mol
30 | SAGEREELLERAKELARKLAEELGVEVEVTVTVEERDDSVTITVTVTVRNEDGSTHTFTFTFTLKKEDLSAG [r5_609_TrROS_Hall] | 3.83 ± 0.14 kcal/mol | 5.55 ± 0.2 kcal/mol | 5.43 ± 0.13 kcal/mol
31 | SAGGSAPGVTLVSSTSSTSTLPDGTTKSTTTTTYKSPTGTYTTTTTTTVDTSKGTTTPTTTVTPVSSAGGSA [r2_185_JUSTAS] | 0.645 ± 0.064 kcal/mol | 0.61 ± 0.16 kcal/mol | 0.692 ± 0.14 kcal/mol
32 | SAGGQRIEIKIKPGYFIMIKIRNPKNGETFRHFIPFKKPQEIEIPIPPNYEIEDIYIMPPKDMPDGMISAGG [r13_119_TrROS] | 2.11 ± 0.058 kcal/mol | 2.28 ± 0.09 kcal/mol | 2.15 ± 0.18 kcal/mol
33 | SAGGSAGGSALLEALKALPPNATLTLVTVETRTETVTDADGSTHTRTTTRVTVTTITIRPEDLSAGGSAGGS [r12_805_TrROS_Hall] | 2.27 ± 0.12 kcal/mol | 3.67 ± 0.089 kcal/mol | 3.18 ± 0.12 kcal/mol
34 | SAGGSAGGSMRIEFPELGVEVELEPLPGPHVLLRAVFPDGRVYLFRLDPDGRLVEVEPVEVLASAGGSAGGS [r12_56_TrMRF] | 2.99 ± 0.089 kcal/mol | 3.42 ± 0.035 kcal/mol | 3.23 ± 0.11 kcal/mol
35 | SAPNYPFFVRIKLPGNGQEVEFPIESPEEADEMLDNFANHPHIKDIDIYRPDGEEVEIEIKIPPEALKQSAG [r14_747_TrROS] | -0.622 ± 0.3 kcal/mol | 0.119 ± 0.16 kcal/mol | 0.0333 ± 0.26 kcal/mol
36 | SSPSSVPDAVVQALKEAHPDVVSIEVTPLPPESTRISVTLKSGSGSSTVSFSIPSPEGVTRTYTVSVSNPSA [r9_678_JUSTAS] | 0.839 ± 0.063 kcal/mol | 1.18 ± 0.091 kcal/mol | 1.04 ± 0.064 kcal/mol
37 | SAMKIYTLPDGSRLIVIPDPYSDSLSVLLVTRSPDGTYHVTLIRYHPNGEKETFTRTGDLETAIRELLSSAG [r14_179_TrMRF] | 3.55 ± 0.077 kcal/mol | 3.588 ± 0.028 kcal/mol | 3.67 ± 0.091 kcal/mol
38 | SGMPTLEIEIEFPEVKGETPVPGTDRTLIDTPMKITVTKIENGPPETVEVELPPKLWTEEIEERIKKILGSA [r9_656_JUSTAS] | -0.248 ± 0.66 kcal/mol | 1.2 ± 0.27 kcal/mol | 0.485 ± 0.47 kcal/mol
39 | SAGGKKVEILEVSVKPVTLGGKKKYYLNVKVKTPDGKVVNVTMPLEVVKSLGFSIEEFAKAVAKTLLSAGGS [r16_625_TrMRF] | 2.96 ± 0.071 kcal/mol | 3.89 ± 0.045 kcal/mol | 3.61 ± 0.055 kcal/mol
40 | SAGGKYKVEIIDPKEGEKVFIEIDEETKKITIWNAKTGEKVAEFEIKDLKEGDTITLPNGFVIKIEKESAGG [r13_720_TrROS_Hall] | 3.67 ± 0.14 kcal/mol | 4.67 ± 0.079 kcal/mol | 4.61 ± 0.12 kcal/mol
41 | SAGGSAGGSMTIPILFPIPPGQPPGMEITFRFPGYKIEIEILEVDPENGWIAFMIELTDPGDDSAGGSAGGS [r12_1039_TrROS] | 3.13 ± 0.093 kcal/mol | 4.36 ± 0.095 kcal/mol | 3.92 ± 0.11 kcal/mol
42 | SAGGSAKEIKAEVKVDPETGTVTVKVYYDGKLVAEATATVEPNGEIKEVNFFFEVDPETGKLIVTGSAGGSA [r15_770_TrMRF] | 2.73 ± 0.12 kcal/mol | 3.07 ± 0.059 kcal/mol | 2.97 ± 0.066 kcal/mol
